{
  "source": "patent US20170209564A1",
  "key": {"[1]": {"target": "FL HA H1N1 (influenza A virus H1N1)", "experiment": "SEC-MALS of FL HA with Fab; theoretical value for trimer with 3 Fabs in brackets"}, "s127H1": {"target": "s127H1", "experiment": "SEC-MALS of polypeptide with Fab", "conditions": "remark: other sources report otherwise"}, "s74H9": {"target": "s74H9", "experiment": "SEC-MALS of polypeptide with Fab", "conditions": "remark: other sources report otherwise"}, "s6E12": {"target": "s6E12", "experiment": "SEC-MALS of polypeptide with Fab", "conditions": "remark: other sources report otherwise"}, "s86B4": {"target": "s86B4", "experiment": "SEC-MALS of polypeptide with Fab", "conditions": "remark: other sources report otherwise"}, "s55G7": {"target": "s55G7", "experiment": "SEC-MALS of polypeptide with Fab", "conditions": "remark: other sources report otherwise"}, "sH1 mini-HA GW1.5E2-FFH": {"target": "sH1 mini-HA GW1.5E2-FFH", "conditions": "remark: other sources report otherwise"}, "[2]": {"target": "T1, sH1 mini-HA GW1.5E2-FFH (Influenza A virus H1N1 A/Brisbane/59/2007)", "experiment": "SEC-MALS with Fab fragments", "conditions": "remark: other sources report otherwise"}, "[3]": {"target": "T1, sH1 mini-HA GW1.5E2-FFH (Influenza A …)", "experiment": "biolayer interferometry (Octet), apparent Kd; CR6261", "conditions": "remark: other sources report otherwise"}},
  "data": [
    {"molecule": "Fab fragment of CR6261", "values": [
      {"measurement": "Mw of protein in complex with CRF6261, observed", "setting": "[1]", "result": 396, "unit": "kDa"}
    ]},
    {"molecule": "Fab fragment of CR9114", "values": [
      {"measurement": "Mw of protein in complex with CRF9114, observed", "setting": "[1]", "result": 343, "unit": "kDa"}
    ]},
    {"molecule": "Fab fragment of CR6261 (Fab, V domains shown) VH: EVQLVESGAEVKKPGSSVKVSCKASGGPFRSYAISWVRQAPGQGPEWMGGIIPIFGTTKYAPKFQGRVTITADDFAGTVYMELSSLRSEDTAMYYCAKHMGYQVRETMDVWGKGTTVTVSS VL: QSVLTQPPSVSAAPGQKVTISCSGSSSNIGNDYVSWYQQLPGTAPKLLIYDNNKRPSGIPDRFSGSKSGTSATLGITGLQTGDEANYYCATWDRRPTAYVVFGGGTKLTVLG", "values": [
      {"measurement": "MW complex with CR6261, observed", "setting": "s127H1", "result": 74, "unit": "kDa"},
      {"measurement": "MW complex with CR6261, observed", "setting": "s74H9", "result": 72, "unit": "kDa"},
      {"measurement": "MW complex with CR6261, observed", "setting": "s6E12", "result": 67, "unit": "kDa"},
      {"measurement": "MW complex with CR6261, observed", "setting": "s86B4", "result": 75, "unit": "kDa"},
      {"measurement": "MW complex with CR6261, observed", "setting": "s55G7", "result": 66, "unit": "kDa"},
      {"measurement": "Mw of protein in complex with CRF6261, observed", "setting": "sH1 mini-HA GW1.5E2-FFH", "result": 201, "unit": "kDa"},
      {"measurement": "Fab fragments bound per trimer (Fab fragments per trimer)", "setting": "[2]", "result": 3}
    ]},
    {"molecule": "monoclonal antibody CR6261 (antibody, V domains shown) VH: EVQLVESGAEVKKPGSSVKVSCKASGGPFRSYAISWVRQAPGQGPEWMGGIIPIFGTTKYAPKFQGRVTITADDFAGTVYMELSSLRSEDTAMYYCAKHMGYQVRETMDVWGKGTTVTVSS VL: QSVLTQPPSVSAAPGQKVTISCSGSSSNIGNDYVSWYQQLPGTAPKLLIYDNNKRPSGIPDRFSGSKSGTSATLGITGLQTGDEANYYCATWDRRPTAYVVFGGGTKLTVLG", "values": [
      {"measurement": "Kd", "setting": "[3]", "result": 1, "unit": "nM"}
    ]}
  ]
}
